This test has as its target T1, MBP-COP1 (Arabidopsis, UniProt P43254 1-675).
T1 sequence (looked up): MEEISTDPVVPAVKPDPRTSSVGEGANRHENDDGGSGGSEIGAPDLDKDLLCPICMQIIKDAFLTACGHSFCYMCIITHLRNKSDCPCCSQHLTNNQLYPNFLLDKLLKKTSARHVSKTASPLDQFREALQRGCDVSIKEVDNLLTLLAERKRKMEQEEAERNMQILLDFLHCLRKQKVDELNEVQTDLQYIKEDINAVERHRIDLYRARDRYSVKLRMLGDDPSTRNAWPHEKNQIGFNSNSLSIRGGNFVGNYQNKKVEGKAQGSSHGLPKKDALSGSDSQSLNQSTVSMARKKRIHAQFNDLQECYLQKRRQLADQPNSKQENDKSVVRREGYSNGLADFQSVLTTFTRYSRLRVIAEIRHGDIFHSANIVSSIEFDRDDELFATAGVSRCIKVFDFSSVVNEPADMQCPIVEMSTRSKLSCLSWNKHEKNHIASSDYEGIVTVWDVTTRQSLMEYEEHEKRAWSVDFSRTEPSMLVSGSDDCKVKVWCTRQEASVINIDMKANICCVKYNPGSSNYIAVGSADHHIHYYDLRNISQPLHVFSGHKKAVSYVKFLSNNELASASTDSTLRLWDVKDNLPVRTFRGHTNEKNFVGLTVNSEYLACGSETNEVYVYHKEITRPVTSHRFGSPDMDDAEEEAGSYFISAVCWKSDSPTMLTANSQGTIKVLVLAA
The test is described as follows: pull-down.

Experimental findings from paper PMC5699047 (Proceedings of the National Academy of Sciences of the …, 2017) are described below.

B1: GST-WDL3 (natural protein)
chain: not shown
As for B1, the binding result is “binds”.
